The target in assay [1] is recombinant human TrkA protein (human) (UniProt P04629). In words: NGF-blocking ELISA on coated human TrkA, 100 nM btNGF; mAb 0.02 nM. (In an ELISA, binding on a coated surface is turned into a signal by an enzyme label.)
Assay [2] has the same target. As to the kind of experiment: NGF-blocking ELISA on coated human TrkA, 100 nM btNGF; mAb 10 nM.
The target is the same in assay [3]. In words: NGF-blocking ELISA on coated human TrkA, 100 nM btNGF; mAb 2.5 nM.
The target is the same in assay [4]. As to the kind of experiment: NGF-blocking ELISA on coated human TrkA, 100 nM btNGF; mAb 0.31 (printed pM, two-fold series gives nM).
For assay [5] the target is unchanged. As to the kind of experiment: NGF-blocking ELISA on coated human TrkA, 100 nM btNGF; mAb 5 nM.
The target is the same in assay [6]. In words: NGF-blocking ELISA on coated human TrkA, 100 nM btNGF; mAb 0.63 nM.
The target is the same in assay [7]. In words: NGF-blocking ELISA on coated human TrkA, 100 nM btNGF; mAb 0.16 nM.
For assay [8] the target is unchanged. In words: NGF-blocking ELISA on coated human TrkA, 100 nM btNGF; mAb 0.08 nM.
Assay [9] has the same target. In words: NGF-blocking ELISA on coated human TrkA, 100 nM btNGF; mAb 20 nM.
The target is the same in assay [10]. In words: NGF-blocking ELISA on coated human TrkA, 100 nM btNGF; mAb 1.25 nM.
The target is the same in assay [11]. In words: NGF-blocking ELISA on coated human TrkA, 100 nM btNGF; mAb 0.04 nM.
The target of assay [12] is TrkA in rat brain, dorsal root ganglia and skin tissue (rat) (UniProt P35739). In words: cell-based or functional assay.
The target in assay [13] is human TrkA receptor expressed in transfected 3T3 fibroblast cells (human) (UniProt P04629). As to the kind of experiment: cell-based or functional assay.
Assay [14] addresses rat TrkA receptor expressed in transfected HEK293 cells (rat) (UniProt P35739). As to the kind of experiment: cell-based or functional assay.

Sequence of TrkA in rat brain, dorsal root ganglia and skin tissue (rat) (P35739 33-799): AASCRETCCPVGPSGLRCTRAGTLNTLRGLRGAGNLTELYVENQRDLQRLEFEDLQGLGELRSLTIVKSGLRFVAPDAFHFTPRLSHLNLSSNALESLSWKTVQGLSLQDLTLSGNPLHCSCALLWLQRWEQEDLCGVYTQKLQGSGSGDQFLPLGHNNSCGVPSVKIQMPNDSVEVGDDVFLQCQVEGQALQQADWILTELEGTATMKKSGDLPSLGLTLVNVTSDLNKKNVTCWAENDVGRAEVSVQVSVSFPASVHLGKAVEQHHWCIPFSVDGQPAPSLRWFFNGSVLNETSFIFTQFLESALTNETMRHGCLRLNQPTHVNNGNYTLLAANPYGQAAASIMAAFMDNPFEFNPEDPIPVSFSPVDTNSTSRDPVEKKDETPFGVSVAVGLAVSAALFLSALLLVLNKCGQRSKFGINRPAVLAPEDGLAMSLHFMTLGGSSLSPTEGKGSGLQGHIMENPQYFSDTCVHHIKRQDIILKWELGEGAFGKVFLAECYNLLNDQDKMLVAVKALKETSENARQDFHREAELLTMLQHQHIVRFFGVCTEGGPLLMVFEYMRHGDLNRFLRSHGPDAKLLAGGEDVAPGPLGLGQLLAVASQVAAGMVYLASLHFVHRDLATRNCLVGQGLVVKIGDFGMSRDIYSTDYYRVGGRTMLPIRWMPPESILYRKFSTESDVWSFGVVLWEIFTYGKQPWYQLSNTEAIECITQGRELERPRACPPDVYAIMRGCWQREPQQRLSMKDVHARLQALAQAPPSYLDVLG
Sequence of rat TrkA receptor expressed in transfected HEK293 cells (rat) (P35739 33-799): as above
Sequence of rat β-NGF (P25427 122-241 limits assumed): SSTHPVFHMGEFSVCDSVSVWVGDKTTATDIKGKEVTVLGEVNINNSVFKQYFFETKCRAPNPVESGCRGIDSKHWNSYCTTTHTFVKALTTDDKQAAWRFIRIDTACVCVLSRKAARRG
Sequence of recombinant human TrkA protein (human) (P04629 other isoform, or with tags, fused parts or gaps limits assumed): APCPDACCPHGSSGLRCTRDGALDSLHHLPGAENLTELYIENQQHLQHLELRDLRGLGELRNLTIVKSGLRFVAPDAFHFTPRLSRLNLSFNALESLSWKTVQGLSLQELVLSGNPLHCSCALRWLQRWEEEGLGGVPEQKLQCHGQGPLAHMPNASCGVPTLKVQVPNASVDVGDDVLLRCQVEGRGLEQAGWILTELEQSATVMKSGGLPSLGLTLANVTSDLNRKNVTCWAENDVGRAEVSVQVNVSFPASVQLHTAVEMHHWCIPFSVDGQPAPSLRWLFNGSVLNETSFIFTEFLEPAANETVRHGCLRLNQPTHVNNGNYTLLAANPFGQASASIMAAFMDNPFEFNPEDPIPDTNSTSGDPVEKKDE
Sequence of human TrkA receptor expressed in transfected 3T3 fibroblast cells (human) (P04629 33-796): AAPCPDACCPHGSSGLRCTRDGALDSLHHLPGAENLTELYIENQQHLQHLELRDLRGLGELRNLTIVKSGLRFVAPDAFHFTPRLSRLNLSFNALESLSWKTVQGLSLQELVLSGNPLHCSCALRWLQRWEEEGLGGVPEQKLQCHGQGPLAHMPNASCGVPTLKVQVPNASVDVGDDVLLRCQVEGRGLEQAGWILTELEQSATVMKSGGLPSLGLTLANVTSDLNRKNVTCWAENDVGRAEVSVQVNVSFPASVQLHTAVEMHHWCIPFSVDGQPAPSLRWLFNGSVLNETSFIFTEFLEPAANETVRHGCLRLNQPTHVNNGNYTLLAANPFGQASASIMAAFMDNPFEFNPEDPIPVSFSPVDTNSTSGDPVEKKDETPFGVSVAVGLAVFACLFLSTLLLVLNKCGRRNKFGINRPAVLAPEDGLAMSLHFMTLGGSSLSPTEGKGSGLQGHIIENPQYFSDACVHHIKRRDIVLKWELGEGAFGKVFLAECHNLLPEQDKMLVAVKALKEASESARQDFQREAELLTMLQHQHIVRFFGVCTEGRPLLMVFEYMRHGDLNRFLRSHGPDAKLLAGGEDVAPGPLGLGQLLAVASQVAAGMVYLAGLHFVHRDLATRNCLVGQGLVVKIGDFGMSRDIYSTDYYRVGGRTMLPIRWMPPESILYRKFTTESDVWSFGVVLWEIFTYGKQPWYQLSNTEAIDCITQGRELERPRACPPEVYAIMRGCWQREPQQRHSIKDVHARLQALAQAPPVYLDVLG

Regarding IgG1 isotype control antibody, the Absorbance 450 nm in assay [1] came to 1.14; in [2] it was 0.97; in [3] it was 1.17; in assay [4], 1.19; in assay [5], 1.1; in assay [6], 1.14. In addition, the Absorbance 450 nm was 1.12 in assay [7]; 1.16 in [8]; 1.13 in assay [9]; 1.04 in assay [10]; 1.1 in [11].
In the case of IgG4 isotype control antibody, the Absorbance 450 nm in assay [1] was found to be 1.13; in assay [2] it was 1.11; in [3] it was 1.07; in [4], 1.14; in assay [5] it was 1.08; in assay [6] it was 1.13. Moreover, the Absorbance 450 nm in assay [7] is 1.13; in assay [8], 1.14; in assay [9], 1.12; in [10], 1.03; in [11], 1.15. In assay [12], this substance yielded a pTrkA counts per second, DRG, NGF stimulated, 10 mg/kg SC (counts per second) of 483000. The same substance had a pTrkA counts per second, DRG, baseline, 10 mg/kg SC (counts per second) in [12] of 109000. Besides, the pTrkA counts per second, brain, NGF stimulated, 10 mg/kg SC (counts per second) in assay [12] is 507000. This substance showed a pTrkA counts per second, brain, baseline, 10 mg/kg SC (counts per second) in assay [12] of 70600. In [12], this substance registered a pTrkA counts per second, skin, NGF stimulated, 10 mg/kg SC (counts per second) of 33300. The pTrkA counts per second, skin, baseline, 10 mg/kg SC (counts per second) in assay [12] was found to be 14500. The substance further displayed a pTrkA counts per second, +mAb 1 hr (1 uM), no NGF (counts per second) in [13] of 28400. The substance also yielded a pTrkA counts per second, +mAb 24 hr (1 uM), no NGF (counts per second) in assay [13] of 28700. Moreover, the pTrkA counts per second, NGF + mAb 1 hr (1 uM) (counts per second) in assay [13] was found to be 238000. Besides, the pTrkA counts per second, NGF + mAb 24 hr (1 uM) (counts per second) in [13] is 290000.
Regarding “rat β-NGF (from UniProt P25427 122-241) (ligand)”, in [14], the pTrkA counts per second, 10 ug/mL NGF alone (mAb A column) (counts per second) was 2.13e+06; the pTrkA counts per second, 10 ug/mL NGF alone (mAb B column) (counts per second) was 4.29e+06; the pTrkA counts per second, 10 ug/mL NGF alone (mAb C column) (counts per second) was determined as 2.81e+06; the pTrkA counts per second, 10 ug/mL NGF alone (mAb D column) (counts per second) came to 3.25e+06. This substance also gave a pTrkA counts per second, 10 ug/mL NGF alone (mAb E column) (counts per second) in assay [14] of 2.76e+06.

These data come from patent US20190263932A1.
